Common to all, as to settings: remark: other sources report otherwise
The target of experiment [1] is T1, CV S-protein construct 6 trimer TP31001F (SARS-CoV-2), P0DTC2. Kind of experiment: SPR. For orientation: SPR reads the build-up and loss of mass on a sensor chip optically.
Experiment [2] deals with T1, CV S-protein construct 6 trimer …. Nature of the experiment: SPR. The source holds these as a separate data set.
For experiment [3], the target named is SARS-COV2-S1 RBD (mouse IgG2Fc tag) (SARS-CoV-2), P0DTC2. Kind of experiment: FACS, S1 RBD-mFc on Vero E6 (ACE2). A general note: A flow cytometer gives signals particle by particle.
For experiment [4] the target is unchanged. Kind of experiment: FACS, blocks S1 RBD-mFc binding to ACE2 on Vero E6.
Experiment [5] shares this target. Nature of the experiment: column not explained; likely FACS, S1 RBD on Vero E6.

B1: variant 6-9 (Fc fusion)
VHH: EVQLVESGGGLVQPGGSLRLSCAASGFTFDYYAMGWFRQAPGKEREFVSAIDSEGRTSYADSVKGRFTISADNSKNTAYLQMNSLKPEDTAVYYCARWGPFDIWGQGTLVTVSS
In general, Kd refers to the concentration at which binding is half-saturated. Read a low Kd as tighter binding. On to B1, for which the Kd in experiment [1] and in experiment [2] was 0.9 nM in each case.

B2: variant 6-63 (Fc fusion)
VHH: EVQLVESGGGLVQPGGSLRLSCAASGQTFNMGWFRQAPGKEREFVAAIGSGGSTSYADSVKGRFTISADNSKNTAYLQMNSLKPEDTAVYYCWRLGNDYFDYWGQGTLVTVSS
For orientation: IC50 means the concentration needed to halve the response being measured. A lower IC50 goes with inhibition by little substance. As for B2, the Kd in experiment [1] and in experiment [2] was 0.3 nM each time. This molecule also returned a Competition Factor in experiment [3] of 7.76. For the same molecule, the IC50 in experiment [4] is 0.74 nM. In experiment [5], this molecule showed an MFI Fold Decrease of 7.76 fold.

Source of the values: patent US20210355194A1.
